Assay results from article PMC12802285, “PPE64 is a mycomembrane channel protein that functions in heme iron uptake and moonlights in biofilm formation in Mycobacterium tuberculosis” (mBio, 2025).
“And” between values parts separate entries of the source, which are not always exact repeats. Equal values may be shown once.

Molecular target: the molecule itself
Assay: native gel or EMSA

B1: PPE64 mycomembrane channel protein (recombinant, detergent-refolded) (natural protein)
chain: MAHFSVLPPEINSLRMYLGAGSAPMLQAAAAWDGLAAELGTAASSFSSVTTGLTGQAWQGPASAAMAAAAAPYAGFLTTASAQAQLAAGQAKAVASVFEAAKAAIVPPAAVAANREAFLALIRSNWLGLNAPWIAAVESLYEEYWAADVAAMTGYHAGASQAAAQLPLPAGLQQFLNTLPNLGIGNQGNANLGGGNTGSGNIGNGNKGSSNLGGGNIGNNNIGSGNRGSDNFGAGNVGTGNIGFGNQGPIDVNLLATPGQNNVGLGNIGNNNMGFGNTGDANTGGGNTGNGNIGGGNTGNNNFGFGNTGNNNIGIGLTGNNQMGINLAGLLNSGSGNIGIGNSGTNNIGLFNSGSGNIGVFNTGANTLVPGDLNNLGVGNSGNANIGFGNAGVLNTGFGNASILNTGLGNAGELNTGFGNAGFVNTGFDNSGNVNTGNGNSGNINTGSWNAGNVNTGFGIITDSGLTNSGFGNTGTDVSGFFNTPTGPLAVDVSGFFNTASGGTVINGQTSGIGNIGVPGTLFGSVRSGLNTGLFNMGTAISGLFNLRQLLG
notes: also called PPE64_(OPOE); PPE64DDM
stoichiometry N: 9 and 3
